Measured values reported in US20200088729.

Assays:
Test in all cases: SPR
PTBP1 = PTBP1 (UniProt P26599); details: HBS-EP+, 3.25 mM MgCl2, 25 C
EZH2 = EZH2 (UniProt Q15910); details: HBS-EP+, 3.25 mM MgCl2, 25 C
SUZ12 = SUZ12 (UniProt Q15022); details: HBS-EP+, 3.25 mM MgCl2, 25 C
EED = EED (UniProt O75530); details: HBS-EP+, 3.25 mM MgCl2, 25 C
[1] = target: T1, HaloTag-DasherGFP-3xLambdaN-V5 (synthetic construct (lambda phage N peptide)) (UniProt P03045); details: ka 29700 1/Ms, kd 0.0012 1/s; HBS-EP+, 3.25 mM MgCl2, 25 C
T1 sequence: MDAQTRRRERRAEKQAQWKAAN

Sequence of EED (O75530 whole entry): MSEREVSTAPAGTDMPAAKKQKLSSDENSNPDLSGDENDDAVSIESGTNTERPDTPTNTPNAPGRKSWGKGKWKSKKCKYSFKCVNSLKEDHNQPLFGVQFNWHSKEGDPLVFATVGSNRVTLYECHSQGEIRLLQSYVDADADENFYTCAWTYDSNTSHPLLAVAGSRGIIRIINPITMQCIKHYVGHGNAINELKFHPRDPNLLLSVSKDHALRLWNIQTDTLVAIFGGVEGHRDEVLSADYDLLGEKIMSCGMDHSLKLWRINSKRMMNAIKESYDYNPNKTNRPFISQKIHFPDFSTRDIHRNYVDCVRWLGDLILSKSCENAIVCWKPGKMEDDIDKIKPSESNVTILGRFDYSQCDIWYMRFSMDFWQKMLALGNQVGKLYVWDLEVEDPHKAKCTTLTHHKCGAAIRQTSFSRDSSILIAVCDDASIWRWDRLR
Sequence of SUZ12 (Q15022 whole entry): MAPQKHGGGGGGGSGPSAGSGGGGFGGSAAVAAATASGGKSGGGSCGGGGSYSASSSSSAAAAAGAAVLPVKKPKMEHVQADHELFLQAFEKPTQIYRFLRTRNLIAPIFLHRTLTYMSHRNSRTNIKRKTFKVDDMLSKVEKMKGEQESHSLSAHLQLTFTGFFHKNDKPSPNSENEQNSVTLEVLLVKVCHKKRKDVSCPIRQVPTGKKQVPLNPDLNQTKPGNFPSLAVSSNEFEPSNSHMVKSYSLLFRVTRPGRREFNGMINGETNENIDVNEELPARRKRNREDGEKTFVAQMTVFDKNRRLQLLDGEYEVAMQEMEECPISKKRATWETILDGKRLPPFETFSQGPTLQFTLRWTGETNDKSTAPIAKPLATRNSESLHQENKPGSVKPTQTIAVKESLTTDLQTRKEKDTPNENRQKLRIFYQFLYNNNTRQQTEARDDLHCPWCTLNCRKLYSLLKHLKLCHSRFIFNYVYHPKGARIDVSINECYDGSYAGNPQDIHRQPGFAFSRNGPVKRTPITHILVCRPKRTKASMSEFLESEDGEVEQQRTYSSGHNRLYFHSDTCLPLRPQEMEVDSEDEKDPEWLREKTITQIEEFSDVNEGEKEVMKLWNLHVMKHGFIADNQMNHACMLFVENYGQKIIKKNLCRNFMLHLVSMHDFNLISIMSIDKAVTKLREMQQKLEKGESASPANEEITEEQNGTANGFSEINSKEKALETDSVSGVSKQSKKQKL
Sequence of PTBP1 (P26599 whole entry): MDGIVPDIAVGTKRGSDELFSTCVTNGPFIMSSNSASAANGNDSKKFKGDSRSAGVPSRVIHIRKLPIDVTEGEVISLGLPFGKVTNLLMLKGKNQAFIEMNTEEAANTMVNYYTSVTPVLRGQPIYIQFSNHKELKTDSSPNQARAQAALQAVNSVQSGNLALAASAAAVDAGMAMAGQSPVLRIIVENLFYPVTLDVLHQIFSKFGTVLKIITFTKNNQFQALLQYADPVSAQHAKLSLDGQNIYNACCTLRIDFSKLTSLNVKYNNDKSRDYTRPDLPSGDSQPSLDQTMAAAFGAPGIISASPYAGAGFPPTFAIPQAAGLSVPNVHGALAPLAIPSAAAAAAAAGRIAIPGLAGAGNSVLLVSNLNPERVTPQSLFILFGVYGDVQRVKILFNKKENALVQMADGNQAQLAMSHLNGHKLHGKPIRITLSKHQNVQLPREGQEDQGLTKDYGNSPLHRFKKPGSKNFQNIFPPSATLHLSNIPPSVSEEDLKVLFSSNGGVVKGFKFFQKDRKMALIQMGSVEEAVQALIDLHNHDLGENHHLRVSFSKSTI
Sequence of EZH2 (Q15910 whole entry): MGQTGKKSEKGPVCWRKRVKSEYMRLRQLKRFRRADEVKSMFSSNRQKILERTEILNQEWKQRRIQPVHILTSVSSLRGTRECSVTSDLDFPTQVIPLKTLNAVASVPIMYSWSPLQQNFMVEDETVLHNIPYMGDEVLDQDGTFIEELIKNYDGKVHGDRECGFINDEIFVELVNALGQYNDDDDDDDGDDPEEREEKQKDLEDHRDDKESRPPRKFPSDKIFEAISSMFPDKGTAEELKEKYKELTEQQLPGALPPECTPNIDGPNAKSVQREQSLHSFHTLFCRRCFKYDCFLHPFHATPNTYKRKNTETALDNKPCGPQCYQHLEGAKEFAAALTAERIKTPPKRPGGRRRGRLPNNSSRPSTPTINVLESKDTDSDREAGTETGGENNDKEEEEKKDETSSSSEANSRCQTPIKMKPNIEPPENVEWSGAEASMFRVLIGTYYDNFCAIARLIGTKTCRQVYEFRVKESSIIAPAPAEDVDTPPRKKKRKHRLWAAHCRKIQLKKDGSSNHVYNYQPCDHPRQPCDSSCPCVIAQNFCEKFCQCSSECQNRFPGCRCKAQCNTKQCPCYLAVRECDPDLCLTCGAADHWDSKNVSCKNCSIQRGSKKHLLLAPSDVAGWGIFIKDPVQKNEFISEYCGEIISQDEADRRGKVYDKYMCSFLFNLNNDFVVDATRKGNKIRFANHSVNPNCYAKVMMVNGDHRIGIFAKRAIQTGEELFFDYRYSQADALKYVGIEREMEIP

Substance | Kd (PTBP1; U-value 20) | Kd (EZH2) | Kd (SUZ12) | Kd (EED) | Kd [1] | Kd (PTBP1) | Kd (EED; U-value 20) | Kd (SUZ12; U-value 26 flagged with asterisk (poor fit)) | Kd (EZH2; U-value 20)
MBP RNA (nt 1-240) | 8680 nM | 58100 nM | 1350 nM | 1630 nM | – | – | – | – | –
MBP-5xBoxB RNA | – | 66000 nM | 96600 nM | – | 39.3 nM | 104 nM | 2940 nM | – | –
Xist A-repeat RNA | – | 56000 nM | – | 257 nM | – | 261 nM | – | 1790 nM | –
Xist E-repeat RNA | – | – | 60600 nM | 1100 nM | – | 59.6 nM | – | – | 13200 nM
